Where a chain is given by its changes, count along the chain named. In names and notes the source's numbering stands.
B1: H9L8 (antibody, human IgG1, kappa, V domains shown)
VH: QVQLVQSGPEVKKPGSSVKVSCKASGYSFTGFTMNWVRQTPGKGLEWIGLINPYNGVTTYNQKFKGRVTITADESTRTAYMELLSLTYEDTAVYYCTREGNWEGVYWGQGTPVTVSA
VL: EVVLTQSPLSISVTLGQSASISCRSSQSLLDSNGKTYLHWFILRPGQSPRRLIYLVSILDSGIPDRFSGSGSGTDFTLKISRVEAEDVGVYYCVQGTHFPFTFGGGTKLEIKR
notes: Humanized IgG1/kappa, expressed in CHO cells; also called humanized Pyr12.2 variant H9L8; VH9/VL8
B2: Pyr7.1 (antibody, IgG2c, V domains shown)
VH: KVQLQQSGPELVKPGTSIKMSCKTSGYSFTGYTLNWVKQSPGKNPEWIGLINPYNGITTYNPKFMGKATLTVDKSSSTAYMELLSLTSEDSAVYYCSREGNWEGVYWGQGTLVTVSA
VL: not shown
notes: also called recombinant antibody Pyr7.1; hybridoma clone Pyr7.1
B3: H2L7-R71A (antibody, human IgG1, kappa)
heavy: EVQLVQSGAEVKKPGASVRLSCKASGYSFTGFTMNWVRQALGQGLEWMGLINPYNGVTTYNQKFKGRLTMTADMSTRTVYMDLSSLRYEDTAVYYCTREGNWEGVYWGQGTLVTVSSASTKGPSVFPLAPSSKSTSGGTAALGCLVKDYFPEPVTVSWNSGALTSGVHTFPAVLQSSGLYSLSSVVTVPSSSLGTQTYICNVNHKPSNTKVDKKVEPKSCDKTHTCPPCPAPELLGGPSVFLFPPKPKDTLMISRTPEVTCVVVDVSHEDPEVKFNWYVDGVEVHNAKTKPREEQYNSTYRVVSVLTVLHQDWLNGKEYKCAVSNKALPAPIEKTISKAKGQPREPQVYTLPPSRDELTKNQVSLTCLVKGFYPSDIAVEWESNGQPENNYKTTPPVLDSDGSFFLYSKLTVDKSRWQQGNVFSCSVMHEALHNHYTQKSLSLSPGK
light: EIVLTQSPLSLSVTLGQSASISCRSSQSLLDSNGKTYLHWFILRPGQSPRRLIYLVSILDSGVPDRFSGSGSGTDFTLKISRVEAEDVGVYYCVQGTHFPFTFGSGTKLEIKRTVAAPSVFIFPPSDEQLKSGTASVVCLLNNFYPREAKVQWKVDNALQSGNSQESVTEQDSKDSTYSLSSTLTLSKADYEKHKVYACEVTHQGLSSPVTKSFNRGEC
notes: Variant of H2L7 with a change in VH only
B4: AβpE11-28 monomer (peptide, UniProt P05067 682-699, looked up)
peptide: EVHHQKLVFFAEDVGSNK
modifications: pyroglutamate (pE) at position 11, the N-terminus
notes: range 11-28; The range counts on Aβ numbering, not on APP
B5: Pyr12.2 (antibody, IgG2c, V domains shown)
VH: EVQLQQSGPELVKPGTSIKMSCKASGYSFTGFTMNWVKQSHGKNLEWIGLINPYNGVTTYNQKFKGKATITVDKSSRTAYMELLSLTYEDSAVYYCTREGNWEGVYWGQGTPVTVSA
VL: EVVLTQTPLTLSVTIGQSASISCKSSQSLLDSNGKTYLHWFLLRPGQSPKRLIYLVSILDSGVPDRFTGSGSGTDFTLKISRVEAEDLGIYYCVQGTHFPFTFGSGTKLEIKR
notes: also called recombinant antibody Pyr12.2; hybridoma clone Pyr12.2
B6: H2L7 (antibody, human IgG1, kappa, V domains shown)
VH: EVQLVQSGAEVKKPGASVRLSCKASGYSFTGFTMNWVRQALGQGLEWMGLINPYNGVTTYNQKFKGRLTMTRDMSTRTVYMDLSSLRYEDTAVYYCTREGNWEGVYWGQGTLVTVSS
VL: B1 VL with V2I, I11L, I63V, G105S
notes: Humanized IgG1/kappa, expressed in CHO cells; also called humanized Pyr12.2 variant H2L7; VH2/VL7
B7: H2L7-R71A/R83T (antibody, human IgG1, kappa)
heavy: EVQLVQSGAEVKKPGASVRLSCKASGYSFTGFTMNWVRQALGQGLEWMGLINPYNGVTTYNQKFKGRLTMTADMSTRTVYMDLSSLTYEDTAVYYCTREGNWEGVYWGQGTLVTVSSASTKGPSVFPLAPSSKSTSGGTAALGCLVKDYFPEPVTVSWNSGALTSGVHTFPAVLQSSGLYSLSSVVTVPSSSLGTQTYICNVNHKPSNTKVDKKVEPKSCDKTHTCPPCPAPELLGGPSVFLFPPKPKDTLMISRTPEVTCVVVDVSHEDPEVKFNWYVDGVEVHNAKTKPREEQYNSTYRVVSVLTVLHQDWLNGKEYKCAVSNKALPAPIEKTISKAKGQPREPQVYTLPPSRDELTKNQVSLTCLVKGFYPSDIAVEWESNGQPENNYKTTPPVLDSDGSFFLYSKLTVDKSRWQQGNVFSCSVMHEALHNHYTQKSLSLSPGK
light: B3 light
notes: Variant of H2L7 with changes in VH only
B8: H2L7-K12V/R83T (antibody, human IgG1, kappa, V domains shown)
VH: B6 VH with K12V, R87T
VL: B1 VL with V2I, I11L, I63V, G105S
notes: as for B7
B9: H2L7-K12V/R71A (antibody, human IgG1, kappa)
heavy: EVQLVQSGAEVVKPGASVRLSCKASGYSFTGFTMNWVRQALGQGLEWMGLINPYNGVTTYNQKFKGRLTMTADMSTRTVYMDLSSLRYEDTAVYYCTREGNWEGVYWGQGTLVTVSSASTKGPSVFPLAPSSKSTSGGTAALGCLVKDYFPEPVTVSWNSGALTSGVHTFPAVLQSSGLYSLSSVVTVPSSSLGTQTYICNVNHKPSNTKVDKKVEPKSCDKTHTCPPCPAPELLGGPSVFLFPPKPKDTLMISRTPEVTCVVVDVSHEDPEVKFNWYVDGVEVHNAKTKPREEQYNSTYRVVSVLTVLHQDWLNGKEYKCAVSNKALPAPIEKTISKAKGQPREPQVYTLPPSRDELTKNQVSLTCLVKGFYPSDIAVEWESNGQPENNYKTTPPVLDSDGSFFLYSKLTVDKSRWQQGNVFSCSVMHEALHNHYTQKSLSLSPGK
light: B3 light
notes: as for B7
B10: H2L7-K12V/R71A/R83T (antibody, human IgG1, kappa)
heavy: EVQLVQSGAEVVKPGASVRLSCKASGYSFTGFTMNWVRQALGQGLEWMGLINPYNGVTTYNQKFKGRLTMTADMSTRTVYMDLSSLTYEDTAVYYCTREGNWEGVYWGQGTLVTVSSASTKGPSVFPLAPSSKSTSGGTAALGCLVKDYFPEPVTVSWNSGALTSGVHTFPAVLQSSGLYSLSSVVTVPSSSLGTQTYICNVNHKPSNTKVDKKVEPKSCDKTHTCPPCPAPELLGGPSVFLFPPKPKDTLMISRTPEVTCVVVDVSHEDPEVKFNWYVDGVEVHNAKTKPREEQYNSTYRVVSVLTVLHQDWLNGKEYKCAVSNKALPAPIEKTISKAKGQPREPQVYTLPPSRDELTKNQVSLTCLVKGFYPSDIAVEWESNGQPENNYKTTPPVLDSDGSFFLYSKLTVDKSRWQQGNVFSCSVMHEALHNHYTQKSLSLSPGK
light: B3 light
notes: as for B7

Assays:
AβpE11-28 monomer = target: B4; assay: inhibition ELISA
Protocol: (§1) The humanized antibodies were incubated at a fixed concentration (0.5 μg/ml) with titrating concentrations of the different Aβ antigens. […] The samples were incubated on the plate for 25 min without shaking followed by washing, incubation with detection antibody, another washing step and finally incubation with alkaline phosphatase substrate.

Aβ1-40 monomer = target: T1, Aβ1-40 monomer (UniProt P05067 672-711); assay: inhibition ELISA
T1 construct: range 1-40
Protocol: as §1

Aβ3-28 monomer = target: T2, Aβ3-28 monomer (UniProt P05067 674-699); assay: inhibition ELISA
T2 construct: range 3-28; The range counts on Aβ numbering, not on APP
Protocol: as §1

Aβ1-42 protofibrils = target: T3, Aβ1-42 protofibrils (UniProt P05067 672-713); assay: inhibition ELISA
T3 construct: range 1-42; Soluble aggregates of Aβ1-42; The range counts on Aβ numbering, not on APP
Protocol: as §1

Aβ1-28 monomer = target: T4, Aβ1-28 monomer (UniProt P05067 672-699); assay: inhibition ELISA
T4 construct: range 1-28; The range counts on Aβ numbering, not on APP
Protocol: as §1

Aβ2-28 monomer = target: T5, Aβ2-28 monomer (UniProt P05067 673-699); assay: inhibition ELISA
T5 construct: range 2-28; The range counts on Aβ numbering, not on APP
Protocol: as §1

Aβ5-28 monomer = target: T6, Aβ5-28 monomer (UniProt P05067 676-699); assay: inhibition ELISA
T6 construct: range 5-28; The range counts on Aβ numbering, not on APP
Protocol: as §1

Aβ4-28 monomer = target: T7, Aβ4-28 monomer (UniProt P05067 675-699); assay: inhibition ELISA
T7 construct: range 4-28; The range counts on Aβ numbering, not on APP
Protocol: as §1

AβpE3-28 monomer = target: T8, AβpE3-28 monomer (UniProt P05067 674-699, pyroglutamate (pE) at position 3, the N-terminus); assay: inhibition ELISA
T8 construct: range 3-28; The range counts on Aβ numbering, not on APP
Protocol: as §1

AβpE11-40 monomer = target: T9, AβpE11-40 monomer (UniProt P05067 682-711, pyroglutamate (pE) at position 11, the N-terminus); assay: inhibition ELISA
T9 construct: range 11-40; The range counts on Aβ numbering, not on APP
T9 peptide (looked up): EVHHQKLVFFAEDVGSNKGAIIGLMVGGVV
Protocol: as §1

Aβ1-42 monomer = target: T10, Aβ1-42 monomer (UniProt P05067 672-713); assay: capture ELISA: plate coated with rabbit anti-Aβ42, peptide monomer captured, hybridoma supernatant, anti-mouse IgG-HRP, OD450 (Example 1)
T10 construct: range 1-42; The range counts on Aβ numbering, not on APP; also called monomeric Aβ1-42

Aβ2-42 monomer = target: T11, Aβ2-42 monomer (UniProt P05067 673-713); assay: as above
T11 construct: range 2-42; The range counts on Aβ numbering, not on APP

H2L7-K12V/R71A = target: B9; assay: inhibition ELISA as in Example 6: antigen in solution titrated, antibody fixed, AβpE3-40 coat
Protocol: as §1

H2L7-K12V/R83T = target: B8; assay: as above
Protocol: as §1

H2L7 [1] = target: B6; assay: as above
Protocol: as §1

H9L8 = target: B1; assay: inhibition ELISA: antigen in solution titrated, antibody fixed (0.5 µg/ml), AβpE3-40 coat
Protocol: as §1

H2L7 [2] = target: B6; assay: as above
Protocol: as §1

AβpE3-40 monomer = target: T12, AβpE3-40 monomer (UniProt P05067 674-711, pyroglutamate (pE) at position 3, the N-terminus); assay: SPR (Biacore 8K), antibody immobilised on CM5, monomer injected, 1:1 model
T12 construct: range 3-40; also called monomeric AβpE3-40
Protocol: For the measurements, 5 μg/ml of […] antibody was immobilized on the chip. The monomer was then injected over the chip using a 2-fold dilution in five steps starting at 250 nM, using 2 min injection of every […] concentration and a 20 min dissociation time. Regeneration of the surface between cycles was done by injecting 30 μl 3 M MgCl₂. The binding data was fitted to a 1:1 interaction model.
In all SPR experiments, 1×HBS-EP+ (Cytiva, cat. no. BR100669) was used to dilute antibodies and target antigens. Experiments were performed at 25° C.
Affinity evaluation and Ko determination by surface plasmon resonance: Binding interactions between antigens and antibodies were evaluated by SPR using a Biacore 8K instrument (Cytiva) according to standard procedures.

H2L7-K12V/R83T, sequence (VH, as listed by the source, chain 1 of 2, one chain of several): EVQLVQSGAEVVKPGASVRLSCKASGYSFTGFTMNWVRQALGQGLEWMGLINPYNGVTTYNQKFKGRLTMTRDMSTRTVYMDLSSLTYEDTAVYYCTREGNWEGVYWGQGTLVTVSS
H2L7-K12V/R71A, sequence (heavy, as listed by the source, chain 1 of 2, one chain of several): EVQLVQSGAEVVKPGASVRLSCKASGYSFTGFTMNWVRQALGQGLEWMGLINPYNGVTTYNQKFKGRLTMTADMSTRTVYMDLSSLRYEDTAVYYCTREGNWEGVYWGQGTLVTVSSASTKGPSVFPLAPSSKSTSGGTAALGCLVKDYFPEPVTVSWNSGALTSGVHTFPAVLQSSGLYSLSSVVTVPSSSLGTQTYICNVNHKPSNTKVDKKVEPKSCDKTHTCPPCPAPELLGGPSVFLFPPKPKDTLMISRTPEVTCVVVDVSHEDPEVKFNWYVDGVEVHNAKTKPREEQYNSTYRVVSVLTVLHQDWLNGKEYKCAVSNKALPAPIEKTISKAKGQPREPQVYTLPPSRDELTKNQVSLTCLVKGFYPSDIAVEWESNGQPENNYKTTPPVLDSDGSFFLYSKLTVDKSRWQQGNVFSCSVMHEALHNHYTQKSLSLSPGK

## B1
AβpE11-28 monomer
  binding result: no binding (tested: 12.5 µM)
Aβ1-40 monomer
  binding result: no binding (tested: 12.5 µM)
Aβ3-28 monomer
  binding result: binds
Aβ1-42 protofibrils
  binding result: no binding (tested: 500 nM)
Aβ1-28 monomer
  binding result: no binding (tested: 12.5 µM)
Aβ2-28 monomer
  binding result: no binding (tested: 12.5 µM)
Aβ5-28 monomer
  binding result: no binding (tested: 12.5 µM)
Aβ4-28 monomer
  binding result: no binding (tested: 12.5 µM)
AβpE3-28 monomer
  binding result: binds

## B2
Aβ1-40 monomer
  binding result: no binding (tested: 5 µM)
AβpE11-40 monomer
  binding result: no binding (tested: 5 µM)
Aβ1-42 monomer
  binding result: no binding (tested: no concentration on the sheet)
Aβ2-42 monomer
  binding result: no binding (tested: no concentration on the sheet)

## B3
Aβ1-40 monomer
  binding result: no binding (tested: 500 nM)
Aβ1-42 protofibrils
  binding result: no binding (tested: 132 nM)

## B4
H2L7-K12V/R71A
  IC50: > 12.5 µM
H2L7-K12V/R83T
  IC50: > 12.5 µM
H2L7 [1]
  IC50: > 12.5 µM
H9L8
  IC50: > 12.5 µM
H2L7 [2]
  IC50: > 12.5 µM

## B5
Aβ1-40 monomer
  binding result: no binding (tested: 5 µM)
AβpE11-40 monomer
  binding result: no binding (tested: 5 µM)
Aβ1-42 monomer
  binding result: no binding (tested: no concentration on the sheet)
Aβ2-42 monomer
  binding result: no binding (tested: no concentration on the sheet)

## B6
AβpE11-28 monomer
  binding result: no binding (tested: 12500 nM)
Aβ1-40 monomer
  binding result: no binding (tested: 12.5 µM)
Aβ3-28 monomer
  binding result: binds
Aβ1-42 protofibrils
  binding result: no binding (tested: 500 nM)
Aβ1-28 monomer
  binding result: no binding (tested: 12500 nM)
Aβ2-28 monomer
  binding result: no binding (tested: 12500 nM)
Aβ5-28 monomer
  binding result: no binding (tested: 12500 nM)
Aβ4-28 monomer
  binding result: no binding (tested: 12500 nM)
AβpE3-28 monomer
  binding result: binds

## B7
Aβ1-40 monomer
  binding result: no binding (tested: 500 nM)
Aβ1-42 protofibrils
  binding result: no binding (tested: 132 nM)
AβpE3-40 monomer
  Kd: 4.62 nM
  koff: 0.000225 s⁻¹
  kon: 50100 M⁻¹ s⁻¹

## B8
Aβ1-40 monomer
  binding result: no binding (tested: 500 nM)
Aβ3-28 monomer
  binding result: binds
Aβ1-42 protofibrils
  binding result: no binding (tested: 132 nM)
AβpE3-28 monomer
  binding result: binds

## B9
Aβ1-40 monomer
  binding result: no binding (tested: 500 nM)
Aβ3-28 monomer
  binding result: binds
Aβ1-42 protofibrils
  binding result: no binding (tested: 132 nM)
AβpE3-28 monomer
  binding result: binds

## B10
Aβ1-40 monomer
  binding result: no binding (tested: 500 nM)
Aβ1-42 protofibrils
  binding result: no binding (tested: 132 nM)
